Data taken from patent publication KR20220167207A.

Columns and labels:
[1] = biological target: CADM1 on small cell lung cancer cell lines H146 and H69 (human) (UniProt Q9BY67); experiment: flow cytometry, PE anti-HA antibody alone (control) on H69 cells
[2] = biological target: CADM1 on small cell lung cancer cell lines H146 and H69 (human) (UniProt Q9BY67); experiment: flow cytometry, PE anti-HA antibody alone (control) on H146 cells
[3] = biological target: T1, CADM1 peptide structure expressed on cells (CADM1 peptide, Myc tag, hinge, transmembrane domain, GFP) (human); experiment: flow cytometry, PE anti-HA antibody alone (control) on cells with the CADM1 peptide structure
T1 sequence: DSRAGEEGSIRAVDH

[4] = biological target: CADM1 peptide expressed on SBC-5 small cell lung cancer cells (CADM1-SBC-5; peptide - transmembrane domain - GFP) (human); experiment: flow cytometry, PE anti-HA antibody alone (control) on SBC-5 cells expressing the CADM1 peptide
[5] = biological target: comparison structure: the same structure without the CADM1 peptide (Myc tag, hinge, transmembrane domain, GFP) on cells; experiment: flow cytometry, PE anti-HA antibody alone (control) on cells with the structure without the peptide

PE-conjugated HA antibody (16B12 clone, Biolegend, Cat No. 901518)
결합력 % [1]: 2.2% | 결합력 % [2]: 2.1% | 결합력 % [3]: 0% | 결합력 % [4]: 0.3% | 결합력 % [5]: 0.1%
